Test results published in patent US20140187758A1.

What was measured:
[1] = target: European Corn Borer-aminopeptidase 1 (Ostrinia nubilalis)
[2] = target: European Corn Borer-cadherin (Ostrinia nubilalis)

Cry1Ac core toxin (trypsin-cleaved Cry1Ac holotoxin) (from UniProt P05068 29-623) (ligand)
Kd [1]: 107 nM | Kd [2]: 48 nM
